Test results published in paper doi:10.1101/2025.06.05.658000 (2025).

Experiments:
Test in all cases: ELISA
[1] = biological target: HLA-DR (DRA1*01:01 / DRB1*04:01), soluble knob-into-hole Fc heterodimer (human)
[2] = biological target: HLA-DR (DRA1*01:01 / DRB1*10:01), soluble knob-into-hole Fc heterodimer (human)
[3] = biological target: HLA-DR (DRA1*01:01 / DRB1*04:05), soluble knob-into-hole Fc heterodimer (human)
[4] = biological target: HLA-DR (DRA1*01:01 / DRB1*13:02), soluble knob-into-hole Fc heterodimer (human)
[5] = biological target: HLA-DR (DRA1*01:01 / DRB1*13:01), soluble knob-into-hole Fc heterodimer (human)
[6] = biological target: HLA-DR (DRA1*01:01 / DRB1*15:03), soluble knob-into-hole Fc heterodimer (human)
[7] = biological target: HLA-DR (DRA1*01:01 / DRB1*01:01), soluble knob-into-hole Fc heterodimer (human)
[8] = biological target: HLA-DR (DRA1*01:01 / DRB1*09:01), soluble knob-into-hole Fc heterodimer (human)
[9] = biological target: HLA-DR (DRA1*01:01 / DRB1*14:54), soluble knob-into-hole Fc heterodimer (human)
[10] = biological target: HLA-DR (DRA1*01:01 / DRB1*15:01), soluble knob-into-hole Fc heterodimer (human)
[11] = biological target: HLA-DR (DRA1*01:01 / DRB1*04:07), soluble knob-into-hole Fc heterodimer (human)
[12] = biological target: HLA-DR (DRA1*01:01 / DRB1*04:04), soluble knob-into-hole Fc heterodimer (human)
[13] = biological target: HLA-DR (DRA1*01:01 / DRB1*04:03), soluble knob-into-hole Fc heterodimer (human)
[14] = biological target: HLA-DR (DRA1*01:01 / DRB1*03:01), soluble knob-into-hole Fc heterodimer (human)
[15] = biological target: HLA-DR (DRA1*01:01 / DRB1*12:01), soluble knob-into-hole Fc heterodimer (human)
[16] = biological target: HLA-DR (DRA1*01:01 / DRB1*04:06), soluble knob-into-hole Fc heterodimer (human)
[17] = biological target: HLA-DR (DRA1*01:01 / DRB1*16:02), soluble knob-into-hole Fc heterodimer (human)
[18] = biological target: HLA-DR (DRA1*01:01 / DRB1*07:01), soluble knob-into-hole Fc heterodimer (human)
[19] = biological target: HLA-DR (DRA1*01:01 / DRB1*11:04), soluble knob-into-hole Fc heterodimer (human)
[20] = biological target: HLA-DR (DRA1*01:01 / DRB1*15:02), soluble knob-into-hole Fc heterodimer (human)
[21] = biological target: HLA-DR (DRA1*01:01 / DRB1*14:01), soluble knob-into-hole Fc heterodimer (human)
[22] = biological target: HLA-DR (DRA1*01:01 / DRB1*11:01), soluble knob-into-hole Fc heterodimer (human)
[23] = biological target: HLA-DR (DRA1*01:01 / DRB1*12:02), soluble knob-into-hole Fc heterodimer (human)
[24] = biological target: HLA-DR (DRA1*01:01 / DRB1*01:02), soluble knob-into-hole Fc heterodimer (human)

B1: human CLIP peptide, unlabelled competitor (peptide)
chain: KPVSKMRMATPLLMQALPM
Question: With B1 as the binder, how does the Ki [1] read?
Answer: 6.46 nM

Question: And the Ki [2]?
Answer: 13.3 nM

Question: What about the Ki [3] of the same binder?
Answer: 41.9 nM

Question: And the Ki [4]?
Answer: 4470 nM

Question: And the Ki [5]?
Answer: 350 nM

Question: What about the Ki [6] of the same binder?
Answer: 11.1 nM

Question: And the Ki [7]?
Answer: 6.04 nM

Question: What about the Ki [8] of the same binder?
Answer: 11 nM

Question: And the Ki [9]?
Answer: 9.1 nM

Question: What about the Ki [10] of the same binder?
Answer: 6.31 nM

Question: And the Ki [11]?
Answer: 5.25 nM

Question: And the Ki [12]?
Answer: 7.75 nM

Question: What about the Ki [13] of the same binder?
Answer: 5.96 nM

Question: And the Ki [14]?
Answer: 23.9 nM

Question: And the Ki [15]?
Answer: 37.8 nM

Question: What about the Ki [16] of the same binder?
Answer: 8.27 nM

Question: What about the Ki [17] of the same binder?
Answer: 47 nM

Question: What about the Ki [18] of the same binder?
Answer: 6.87 nM

Question: And the Ki [19]?
Answer: 2.92 nM

Question: And the Ki [20]?
Answer: 23.1 nM

Question: And the Ki [21]?
Answer: 67 nM

Question: What about the Ki [22] of the same binder?
Answer: 25.8 nM

Question: And the Ki [23]?
Answer: 3.68 nM

Question: And the Ki [24]?
Answer: 5.52 nM
